This assay addresses CD40 (human) (UniProt P25942). In words: cell-based or functional assay.
Sequence of UniProt P25942 (P25942 21-277): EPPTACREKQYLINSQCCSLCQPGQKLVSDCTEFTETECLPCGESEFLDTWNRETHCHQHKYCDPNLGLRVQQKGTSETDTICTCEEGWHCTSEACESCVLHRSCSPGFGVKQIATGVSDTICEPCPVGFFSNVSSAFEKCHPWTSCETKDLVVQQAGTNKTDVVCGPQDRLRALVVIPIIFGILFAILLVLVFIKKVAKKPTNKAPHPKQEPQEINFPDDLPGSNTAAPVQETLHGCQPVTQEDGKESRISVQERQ

Substance “Anti-CD40 antibody (IgG1 mutant, REGN3794)” registered a T cell activation (percentage of live CD2+CD16-CD8+ cells expressing CD25) (% below CD20×CD3 (REGN1979) alone) of 35.

Source of the values: US20220233690A1.
